Laboratory results reported in paper PMC5432818, “Biochemical characterization of a functional recombinant aryl-alcohol dehydrogenase from Taiwanofungus camphorata” (Botanical Studies, 2014).

Test system: COc1ccc(C=O)cc1OC
Assay: purified protein
Assay type: biochemical, Taiwanofungus camphoratus
Settings: reduction, 0.2 mM NADPH fixed, 25 mM bis-tris-propane/HCl pH 6.0, 25 °C, veratraldehyde 0.1-0.4 mM

TcAAD (also printed TcADD) (Taiwanofungus camphoratus)
Km: 250 µM
